The results in this text go back to publication PMC10765961 (2024).

Holding throughout (experiment): microscale thermophoresis
The target in experiment [1] is T1, EPHA2ΔN intracellular region (Homo sapiens, UniProt P29317).
T1 chain: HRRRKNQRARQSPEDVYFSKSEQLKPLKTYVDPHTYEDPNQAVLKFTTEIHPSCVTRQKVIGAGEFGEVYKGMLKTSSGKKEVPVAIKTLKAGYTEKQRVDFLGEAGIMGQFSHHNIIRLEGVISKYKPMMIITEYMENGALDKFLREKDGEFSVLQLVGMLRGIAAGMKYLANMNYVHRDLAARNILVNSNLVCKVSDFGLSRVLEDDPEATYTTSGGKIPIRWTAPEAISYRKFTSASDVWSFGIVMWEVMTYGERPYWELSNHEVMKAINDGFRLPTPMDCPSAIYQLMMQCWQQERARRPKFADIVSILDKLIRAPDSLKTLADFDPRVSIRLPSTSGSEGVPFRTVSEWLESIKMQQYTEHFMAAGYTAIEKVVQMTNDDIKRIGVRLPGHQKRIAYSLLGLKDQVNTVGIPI

Experiment [2] has as its target EPHA2ΔC ECD (Homo sapiens, UniProt P29317).
Experiment [3] deals with EPHA2 (Homo sapiens, UniProt P29317).

EPHA2ΔC ECD, sequence (P29317 24-537, stated change not applied): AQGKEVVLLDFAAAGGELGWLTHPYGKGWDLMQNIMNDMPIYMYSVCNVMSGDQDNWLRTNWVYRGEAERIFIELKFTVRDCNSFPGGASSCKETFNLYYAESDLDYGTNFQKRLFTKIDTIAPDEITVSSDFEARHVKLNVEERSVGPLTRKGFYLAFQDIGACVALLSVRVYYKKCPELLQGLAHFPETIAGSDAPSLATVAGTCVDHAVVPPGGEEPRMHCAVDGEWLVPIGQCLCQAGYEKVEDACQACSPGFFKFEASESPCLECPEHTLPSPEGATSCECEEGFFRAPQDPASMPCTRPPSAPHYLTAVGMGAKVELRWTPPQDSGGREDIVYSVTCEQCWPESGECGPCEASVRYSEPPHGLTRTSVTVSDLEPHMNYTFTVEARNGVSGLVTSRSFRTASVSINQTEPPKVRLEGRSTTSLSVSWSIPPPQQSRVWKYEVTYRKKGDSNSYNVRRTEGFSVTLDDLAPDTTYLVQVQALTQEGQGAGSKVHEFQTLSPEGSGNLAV

B1: Claudin-1 (protein)
chain: MANAGLQLLGFILAFLGWIGAIVSTALPQWRIYSYAGDNIVTAQAMYEGLWMSCVSQSTGQIQCKVFDSLLNLSSTLQATRALMVVGILLGVIAIFVATVGMKCMKCLEDDEVQKMRMAVIGGAIFLLAGLAILVATAWYGNRIVQEFYDPMTPVNARYEFGQALFTGWAAASLCLLGGALLCCSCPRKTTSYPTPRPYPKPAPSSGKDYV
modifications: Cy3-labeled CLDN1
For orientation: Kd means the equilibrium constant for the complex coming apart. The low end stands for tighter binding, the high end for weaker binding. Consider B1, for which the values for the Kd in experiment [1], in experiment [2] and in experiment [3] were 125 nM, 582 nM and 150 nM, respectively.
